# Data published in FireProtDB (doi:10.1021/bi00165a022).
# B1: Regulatory protein cro wild type, P03040 (protein)
# chain: MEQRITLKDYAMRFGQTKTAKDLGVYQSAINKAIHAGRKIFLTINADGSVYAEEVKPFPSNKKTTA
# Conditions: Escherichia phage lambda, Thermal, DSC, Potassium phosphate 20 nM, whole UniProt chain shown
protein,measurement,setting,value
B1,Tm,pH 5.18,35.5 °C
same,heat capacity change of unfolding,pH 5.18,1.51 kcal/mol/K
same,unfolding enthalpy (calorimetric),pH 5.18,34.9 kcal/mol
same,unfolding enthalpy (van 't Hoff),pH 5.18,37.3 kcal/mol
same,Tm,pH 5.48,38 °C
same,heat capacity change of unfolding,pH 5.48,1.61 kcal/mol/K
same,unfolding enthalpy (calorimetric),pH 5.48,39 kcal/mol
same,unfolding enthalpy (van 't Hoff),pH 5.48,40.7 kcal/mol
same,Tm,pH 6,44 °C
same,heat capacity change of unfolding,pH 6,1.66 kcal/mol/K
same,unfolding enthalpy (calorimetric),pH 6,48.1 kcal/mol
same,unfolding enthalpy (van 't Hoff),pH 6,51 kcal/mol
same,Tm,pH 7,46.2 °C
same,heat capacity change of unfolding,pH 7,1.36 kcal/mol/K
same,unfolding enthalpy (calorimetric),pH 7,52.9 kcal/mol
same,unfolding enthalpy (van 't Hoff),pH 7,52.4 kcal/mol
